The term stoichiometry N denotes the number of molecules, sites or subunits per partner or assembly.

The source of these data is paper PMC3358469.

Test [1] has as its target Dec (phage decoration protein) with a hexa-histidine tag at the C-terminus. The test is described as follows: cryo-EM structure.
The target of test [2] is Dec (phage decoration protein), tagged form not told for the experiment. Briefly: cryo-EM structure.

Sequence of Dec (phage decoration protein) with a hexa-histidine tag at the C-terminus (Q8HAE6 whole entry): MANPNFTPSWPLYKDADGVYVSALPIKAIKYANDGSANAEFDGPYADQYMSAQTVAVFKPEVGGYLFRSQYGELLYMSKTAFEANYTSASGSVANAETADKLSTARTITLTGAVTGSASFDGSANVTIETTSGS
Sequence of Dec (phage decoration protein), tagged form not told for the experiment (Q8HAE6 whole entry): as above

Consider “Dec (phage decoration protein) with a hexa-histidine tag at the C-terminus (natural protein)”, for which the stoichiometry N in test [1] came to 3.
In test [2], “Dec (phage decoration protein), tagged form not told for the experiment (natural protein)” returned a stoichiometry N of 3.
